Results taken from publication PMC10121161, “Delivering a toxic metal to the active site of urease” (Science Advances, 2023).

B1: HpUreA (H. pylori urease subunit, fusion of the γ and β domains), in the cryo-EM sample (natural protein)
chain: MKLTPKELDKLMLHYAGELAKKRKEKGIKLNYVEAVALISAHIMEEARAGKKTAAELMQEGRTLLKPDDVMDGVASMIHEVGIEAMFPDGTKLVTVHTPIEANGKLVPGELFLKNEDITINEGKKAVSVKVKNVGDRPVQIGSHFHFFEVNRCLDFDREKTFGKRLDIASGTAVRFEPGEEKSVELIDIGGNRRIFGFNALVDRQADNESKKIALHRAKERGFHGAKSDDNYVKTIKE
notes: Helicobacter pylori urease subunit HpUreA (γ and β domains)
B2: HpUreF(R179A/Y183D)/HpUreD(E140A)-Strep complex, in the cryo-EM sample (complex)
chain 1: MDKGKSVKSTEKSVGMPPKTPKTDNNAHVDNEFLILQVNDAVFPIGSYTHSFGLETYIQQKKVTNKESALEYLKANLSSQFLYTEMLSLKLTYESALQQDLKKILGVEEVIMLSTSPMELRLANQKLGNRFIKTLQAMNELDMGEFFNAYAQKTKDPTHATSYGVFAASLGIELKKALAHYLDAQTSNMVINCVKSVPLSQNDGQKILLSLQSPFNQLIEKTLELDESHLCTASVQNDIKAMQHESLYSRLYMS
chain 2: MNTYAQESKLRLKTKIGADGRCVIEDNFFTPPFKLMAPFYPKDDLAEIMLLAVSPGMMRGDAQDVQLNIGPNCKLRITSQSFEKIHNTEDGFASRDMHIVVGENAFLDFAPFPLIPFENAHFKGNTTISLRSSSQLLYSAIIVAGRVARNELFKFNRLHTKISILQDEKPIYYDNTILDPKTTDLNNMCMFDGYTHYLNLVLVNCPIELSGVRECIEESEGVDGAVSETASSHLCVKALAKGSEPLLHLREKIARLVTQTTTQKV
notes: Helicobacter pylori urease accessory protein HpUreF; Helicobacter pylori urease accessory protein HpUreD (encoded by ureH); one copy of HpUreF and one of HpUreD per urease catalytic unit; also called HpUreFD
B3: HpUreD(E140A) with C-terminal Strep-tag II, in the cryo-EM sample (natural protein)
chain: B2 chain 2
notes: Helicobacter pylori urease accessory protein HpUreD (encoded by ureH); also called UreH
B4: HpUreF(R179A/Y183D), in the cryo-EM sample (natural protein)
chain: B2 chain 1
notes: Helicobacter pylori urease accessory protein HpUreF; everywhere else R179A/Y183D

Key:
Test in all cases: cryo-EM structure; HpUreFD/urease complex coexpressed in E. coli, purified by Strep-Tactin XT and Superose-6 SEC in 50 mM Hepes, 200 mM NaCl, 0.5 mM TCEP (pH 7.5); 0.5 mg/ml on grids; tetrahedral symmetry; 2.3 Å
Conditions in all cases: both partners purified
[1] = biological target: T1, HpUreB (H. pylori urease subunit, α domain), in the cryo-EM sample (Helicobacter pylori, UniProt P69996 1-569)
T1 construct: Helicobacter pylori urease subunit HpUreB (α domain)
T1 sequence (P69996 whole entry): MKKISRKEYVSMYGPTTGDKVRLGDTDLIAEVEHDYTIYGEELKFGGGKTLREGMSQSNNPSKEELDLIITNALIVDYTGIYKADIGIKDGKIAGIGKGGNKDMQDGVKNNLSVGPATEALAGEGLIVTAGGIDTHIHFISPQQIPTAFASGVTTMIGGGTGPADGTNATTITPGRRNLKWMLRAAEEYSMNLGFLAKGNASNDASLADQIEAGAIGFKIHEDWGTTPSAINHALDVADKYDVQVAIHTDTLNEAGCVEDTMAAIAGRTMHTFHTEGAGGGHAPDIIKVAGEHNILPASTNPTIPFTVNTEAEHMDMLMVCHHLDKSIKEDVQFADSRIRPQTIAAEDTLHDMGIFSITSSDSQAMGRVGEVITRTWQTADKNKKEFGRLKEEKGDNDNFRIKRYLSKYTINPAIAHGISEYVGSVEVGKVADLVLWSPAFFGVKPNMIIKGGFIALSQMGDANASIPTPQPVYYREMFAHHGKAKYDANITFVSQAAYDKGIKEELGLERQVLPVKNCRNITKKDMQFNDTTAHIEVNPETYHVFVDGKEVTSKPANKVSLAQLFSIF

[2] = biological target: B3
[3] = biological target: T2, H. pylori urease (HpUreAB), in the cryo-EM sample (Helicobacter pylori, UniProt P14916 1-238; P69996 1-569)
T2 construct: Helicobacter pylori urease subunit HpUreA (γ and β domains); Helicobacter pylori urease subunit HpUreB (α domain); dodecamer of HpUreAB catalytic units (four trimers); copies: 12 + 12
T2 sequence (P69996 whole entry, one chain of several): as the sequence (P69996 whole entry) above

Row | Binder | binding result [1] | binding result [2] | binding result [3]
1 | B1 | binds | binds | 
2 | B2 |  |  | binds
3 | B3 | binds |  | 
4 | B4 |  | binds | 
